Source: PMC9863245, “A Putative New Role of Tv-PSP1 Recognizes IRE and ERE Hairpin Structures from Trichomonas vaginalis”

Experiments:
[1] = molecular target: Tv-PSP1, perchloric-acid-soluble protein (PSP) from Trichomonas vaginalis (Trichomonas vaginalis); assay: crystal structure; recombinant Tv-PSP1 20 mg/mL in 25 mM Tris-HCl pH 7.4, 150 mM NaCl, 1 mM DTT; sitting-drop vapor diffusion at 18 °C; space group P63, 1.95 Å; trimers built from the same monomer of different asymmetric units, interfaces analysed with PISA
[2] = molecular target: T1, Tv-PSP1 (Trichomonas vaginalis, UniProt A2DAL5 1-124); assay: EMSA; 3 mM Mg2+; REMSA: 50 mM Tris-HCl, 75 mM KCl, 3 mM MgCl2, 10 mM DTT, 37 C, 30 min, pH not stated; 100 ug protein, 1 ug RNA; 1.7% agarose; details: protein: recombinant; chain copies: 3; hairpin
T1 sequence: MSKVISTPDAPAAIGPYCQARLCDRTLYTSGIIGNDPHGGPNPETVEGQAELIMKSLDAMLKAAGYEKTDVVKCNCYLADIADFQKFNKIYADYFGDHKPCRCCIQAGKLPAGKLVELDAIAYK

“Tv-PSP1, perchloric-acid-soluble protein (PSP) from Trichomonas vaginalis (natural protein)” was tested, and the stoichiometry N [1] was 3.

B1: ERE-like (tvcp39 3' UTR) (structured_RNA)
RNA: GGGGUUUAGAAUUUCCAAUAA
B1: binds [2].
